Experimental findings from patent publication US20130171059A1 (AbbVie / Abbott, published 2013) are described below.

Assay [1] deals with T1, Recombinant Human TNF-α/TNFSF1A (human, UniProt P01375 77-233).
T1 construct: Bought reagent for Biacore; also called huTNFα; HuTNFα
Kind of assay: SPR (Biacore). As for the experimental part: (§1) The BIACORE assay (Biacore, Inc, Piscataway, N.J.) determined the affinity of antibodies or DVD-Ig proteins with kinetic measurements of on-rate and off-rate constants. Binding of antibodies or DVD-Ig proteins to a target antigen (for example, a purified recombinant target antigen) was determined by surface plasmon resonance-based measurements with a Biacore® 1000 or 3000 instrument (Biacore® AB, Uppsala, Sweden) using running HBS-EP (10 mM HEPES [pH 7.4], 150 mM NaCl, 3 mM EDTA, and 0.005% surfactant P20) at 25° C. All chemicals were obtained from Biacore® AB (Uppsala, Sweden) or otherwise from a different source as described in the text. For example, approximately 5000 RU of goat anti-mouse IgG, (Fcγ), fragment specific polyclonal antibody (Pierce Biotechnology Inc, Rockford, Ill.) diluted in 10 mM sodium acetate (pH 4.5) was directly immobilized across a CM5 research grade biosensor chip using a standard amine coupling kit according to manufacturer's instructions and procedures at 25 μg/ml. Unreacted moieties on the biosensor surface were blocked with ethanolamine. Modified carboxymethyl dextran surface in flowcell 2 and 4 was used as a reaction surface. Unmodified carboxymethyl dextran without goat anti-mouse IgG in flow cell 1 and 3 was used as the reference surface. For kinetic analysis, rate equations derived from the 1:1 Langmuir binding model were fitted simultaneously to association and dissociation phases of all eight injections (using global fit analysis) with the use of Biaevaluation 4.0.1 software. Purified antibodies or DVD-Ig proteins were diluted in HEPES-buffered saline for capture across goat anti-mouse IgG specific reaction surfaces. Antibodies or DVD-Ig proteins to be captured as a ligand (25 μg/ml) were injected over reaction matrices at a flow rate of 5 μl/minute. The association and dissociation rate constants, kₒₙ (M⁻¹s⁻¹) and koff (s⁻¹) were determined under a continuous flow rate of 25 μl/minute. Rate constants were derived by making kinetic binding measurements at different antigen concentrations ranging from 10-200 nM. The equilibrium dissociation constant (M) of the reaction between antibodies or DVD-Ig proteins and the target antigen was then calculated from the kinetic rate constants by the following formula: KD=koff/kₒₙ. Binding was recorded as a function of time and kinetic rate constants were calculated.

Assay [2] addresses T1, Recombinant Human TNF-α/TNFSF1A. The assay is described as follows: cell-based or functional assay.
The target in a further assay is T2, Recombinant Human SOST (human, UniProt Q9BQB4 24-213).
T2 sequence (looked up): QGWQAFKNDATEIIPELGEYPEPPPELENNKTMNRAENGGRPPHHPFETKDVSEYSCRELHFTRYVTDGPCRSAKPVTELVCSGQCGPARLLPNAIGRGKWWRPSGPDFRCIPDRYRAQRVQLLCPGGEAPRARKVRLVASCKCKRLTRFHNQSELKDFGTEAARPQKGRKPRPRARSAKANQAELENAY
Kind of assay: cell-based or functional assay.

Another assay concerns the target T3, Recombinant Human β-NGF (human, UniProt P01138 122-239, limits assumed).
T3 construct: Bought reagent for Biacore; also called huNGF; NGF (Rinat)
Kind of assay: SPR (Biacore). As for the experimental part: as §1

Bounds are passed on as bounds.

T1 sequence (P01375 77-233 limits assumed): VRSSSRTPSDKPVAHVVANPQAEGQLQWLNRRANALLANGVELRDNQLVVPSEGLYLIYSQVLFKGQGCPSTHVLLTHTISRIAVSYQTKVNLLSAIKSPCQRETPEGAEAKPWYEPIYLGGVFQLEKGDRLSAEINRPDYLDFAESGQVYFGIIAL
T3 sequence (P01138 122-239 limits assumed): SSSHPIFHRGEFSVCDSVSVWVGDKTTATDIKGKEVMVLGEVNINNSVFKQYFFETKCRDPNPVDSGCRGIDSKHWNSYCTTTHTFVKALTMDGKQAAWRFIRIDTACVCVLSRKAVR

B1: AB218 (antibody, V domains shown)
VH: EVQLVESGGGLIQPGGSLRLSCAASGFTVSRNYMSWVRQAPGKGLEWVSVIYSGDRTYYADSVKGRFTISRDNSKNTLYLQMNSLRAEDTAVYYCARGEGGFDYWGQGTLVTVSS
VL: EIVMTQSPATLSVSPGERATLSCRASQSVSSNLAWYQQKPGQAPRLLIHGASIRATGLPARFSGSGSGTEFTLTISSLQSEDFAVYYCQQYNYWWTFGQGTKVEIKR
notes: Parent antibody
As for B1, in assay [1], the Kd was found to be 0.041 nM, the koff stood at 7.3e-05 s⁻¹ and the kon is 1.8e+06 M⁻¹ s⁻¹. In addition, the “TNFα Neutralization Assay IC50 (L929 cells)” value in assay [2] came to 0.179 nM.

B2: DVD1983 (bispecific antibody, not shown: a dimerising Fc or GST)
heavy: DVQMIQSPSSLSASLGDIVTMTCQASQGTSINLNWFQQKPGKAPKLLIYGSSNLEDGVPSRFSGSRYGTDFTLTISSLEDEDLATYFCLQHSYLPYTFGGGTKLEIKRTVAAPQVQLVESGGGVVQPGRSLRLSCAASGFTFSSYDMHWVRQAPGKGLEWVAVIWSDGSIKYYADSVKGRFTISRDNSKNTLYLQMNSLRAEDTAVYYCAREVESAMGGFYYNGMDVWGQGTTVTVSS
light: EVQLQQSGPELVTPGASVKISCKASGYTFTDHYMSWVKQSHGKSLEWIGDINPYSGETTYNQKFKGTATLTVDKSSSIAYMEIRGLTSEDSAVYYCARDDYDASPFAYWGQGTLVTVSAASTKGPDIQMTQSPSSLSASVGDRVTITCRASQGIRIDLGWYQQKPGKAPKRLIYAASTLQSGVPSRFSGSGSGTEFIFTISSLQPEDFASYYCLQHKSYPLTFGGGTKVEIKR
Regarding B2, the C-Terminal VD TNFα Neutralization Assay IC50 (L929 cells) in assay [2] stood at 0.127 nM. Besides, the N-Terminal VD SOST Neutralization Assay IC50 (Wnt-1/luciferase HEK clone #14) with Recombinant Human SOST is more than 360 nM.

B3: DVD1985 (bispecific antibody)
DVD-H: DIQMTQSPSSLSASVGDRVTITCRASQSISNNLNWYQQKPGKAPKLLIYYTSRFHSGVPSRFSGSGSGTDFTFTISSLQPEDIATYYCQQEHTLPYTFGQGTKLEIKRTVAAPQVQLVESGGGVVQPGRSLRLSCAASGFTFSSYDMHWVRQAPGKGLEWVAVIWSDGSIKYYADSVKGRFTISRDNSKNTLYLQMNSLRAEDTAVYYCAREVESAMGGFYYNGMDVWGQGTTVTVSS
DVD-L: QVQLQESGPGLVKPSETLSLTCTVSGFSLIGYDLNWIRQPPGKGLEWIGIIWGDGTTDYNSAVKSRVTISKDTSKNQFSLKLSSVTAADTAVYYCARGGYWYATSYYFDYWGQGTLVTVSSASTKGPDIQMTQSPSSLSASVGDRVTITCRASQGIRIDLGWYQQKPGKAPKRLIYAASTLQSGVPSRFSGSGSGTEFIFTISSLQPEDFASYYCLQHKSYPLTFGGGTKVEIK
notes: VH/VL crossover DVD-Ig; also called DVD1985H + DVD1985L; copies: 2 + 2
For B3, in assay [1], the Kd is 0.43 nM, the koff was found to be 1.9e-05 s⁻¹ and the kon was determined as 45000 M⁻¹ s⁻¹. Also, in the assay with Recombinant Human β-NGF, the Kd was found to be 0.012 nM, the koff worked out at 3.7e-05 s⁻¹ and the kon was determined as 3.1e+06 M⁻¹ s⁻¹. For the same molecule, the “C-Terminal VD TNFα Neutralization Assay IC50 (L929 cells)” value in assay [2] worked out at 4.51 nM.

B4: AB213 (antibody, V domains shown)
VH: QVQLKESGPGLVAPSQSLSITCTVSGFSLTDYGVNWVRQPPGKGLEWLGMIWGDGSTDYDSTLKSRLSISKDNSKSQIFLKMNSLQTDDTARYYCAREWHHGPVAYWGQGTLVTVSA
VL: DIVMTQSHKFMSTTVGDRVSITCKASQAVSSAVAWYQQKPGQSPKLLIYWASTRHTGVPDRFTGSGSVTDFTLTIHNLQAEDLALYYCQQHYSTPFTFGSGTKLEIKR
notes: Parent antibody
As to B4, in assay [1], the Kd was found to be 0.025 nM, the koff worked out at 8.2e-05 s⁻¹ and the kon came out at 3.2e+06 M⁻¹ s⁻¹. Besides, the “TNFα Neutralization Assay IC50 (L929 cells)” value in assay [2] was determined as 0.244 nM.

B5: DVD1993 (bispecific antibody)
DVD-H: DIQMTQSPSSLSASVGDRVTITCRASQSISNNLNWYQQKPGKAPKLLIYYTSRFHSGVPSRFSGSGSGTDFTFTISSLQPEDIATYYCQQEHTLPYTFGQGTKLEIKRTVAAPEVQLVESGGGLIQPGGSLRLSCAASGFTVSRNYMSWVRQAPGKGLEWVSVIYSGDRTYYADSVKGRFTISRDNSKNTLYLQMNSLRAEDTAVYYCARGEGGFDYWGQGTLVTVSS
DVD-L: QVQLQESGPGLVKPSETLSLTCTVSGFSLIGYDLNWIRQPPGKGLEWIGIIWGDGTTDYNSAVKSRVTISKDTSKNQFSLKLSSVTAADTAVYYCARGGYWYATSYYFDYWGQGTLVTVSSASTKGPEIVMTQSPATLSVSPGERATLSCRASQSVSSNLAWYQQKPGQAPRLLIHGASIRATGLPARFSGSGSGTEFTLTISSLQSEDFAVYYCQQYNYWWTFGQGTKVEIK
notes: VH/VL crossover DVD-Ig; also called DVD1993H + DVD1993L; copies: 2 + 2
Consider B5, for which, in assay [1], the Kd worked out at 0.43 nM, the koff was determined as 3.5e-05 s⁻¹ and the kon was determined as 81000 M⁻¹ s⁻¹. In addition, in the assay with Recombinant Human β-NGF, the Kd amounted to 0.0047 nM, the koff was determined as 1.5e-05 s⁻¹ and the kon was determined as 3.3e+06 M⁻¹ s⁻¹. Also, in assay [2], the “C-Terminal VD TNFα Neutralization Assay IC50 (L929 cells)” value was 2.08 nM.

B6: DVD1959 (bispecific antibody, not shown: a dimerising Fc or GST)
heavy: DVQMIQSPSSLSASLGDIVTMTCQASQGTSINLNWFQQKPGKAPKLLIYGSSNLEDGVPSRFSGSRYGTDFTLTISSLEDEDLATYFCLQHSYLPYTFGGGTKLEIKRTVAAPQVQLKESGPGLVAPSQSLSITCTVSGFSLTDYGVNWVRQPPGKGLEWLGMIWGDGSTDYDSTLKSRLSISKDNSKSQIFLKMNSLQTDDTARYYCAREWHHGPVAYWGQGTLVTVSA
light: EVQLQQSGPELVTPGASVKISCKASGYTFTDHYMSWVKQSHGKSLEWIGDINPYSGETTYNQKFKGTATLTVDKSSSIAYMEIRGLTSEDSAVYYCARDDYDASPFAYWGQGTLVTVSAASTKGPDIVMTQSHKFMSTTVGDRVSITCKASQAVSSAVAWYQQKPGQSPKLLIYWASTRHTGVPDRFTGSGSVTDFTLTIHNLQAEDLALYYCQQHYSTPFTFGSGTKLEIKR
As for B6, the C-Terminal VD TNFα Neutralization Assay IC50 (L929 cells) in assay [2] was determined as 1.52 nM. Also, the N-Terminal VD SOST Neutralization Assay IC50 (Wnt-1/luciferase HEK clone #14) with Recombinant Human SOST is 54.2 nM.

B7: DVD1982 (bispecific antibody, not shown: a dimerising Fc or GST)
heavy: DIQMTQSPSSLSASVGDRVTITCRASQGIRIDLGWYQQKPGKAPKRLIYAASTLQSGVPSRFSGSGSGTEFIFTISSLQPEDFASYYCLQHKSYPLTFGGGTKVEIKRTVAAPEVQLQQSGPELVTPGASVKISCKASGYTFTDHYMSWVKQSHGKSLEWIGDINPYSGETTYNQKFKGTATLTVDKSSSIAYMEIRGLTSEDSAVYYCARDDYDASPFAYWGQGTLVTVSA
light: QVQLVESGGGVVQPGRSLRLSCAASGFTFSSYDMHWVRQAPGKGLEWVAVIWSDGSIKYYADSVKGRFTISRDNSKNTLYLQMNSLRAEDTAVYYCAREVESAMGGFYYNGMDVWGQGTTVTVSSASTKGPDVQMIQSPSSLSASLGDIVTMTCQASQGTSINLNWFQQKPGKAPKLLIYGSSNLEDGVPSRFSGSRYGTDFTLTISSLEDEDLATYFCLQHSYLPYTFGGGTKLEIKR
With B7, the N-Terminal VD TNFa Neutralization Assay IC50 (L929 cells) in assay [2] came out at 0.017 nM. The C-Terminal VD SOST Neutralization Assay IC50 (Wnt-1/luciferase HEK clone #14) with Recombinant Human SOST was more than 100 nM.

B8: AB217 (antibody, V domains shown)
VH: QVQLVESGGGVVQPGRSLRLSCAASGFTFSSYDMHWVRQAPGKGLEWVAVIWSDGSIKYYADSVKGRFTISRDNSKNTLYLQMNSLRAEDTAVYYCAREVESAMGGFYYNGMDVWGQGTTVTVSS
VL: DIQMTQSPSSLSASVGDRVTITCRASQGIRIDLGWYQQKPGKAPKRLIYAASTLQSGVPSRFSGSGSGTEFIFTISSLQPEDFASYYCLQHKSYPLTFGGGTKVEIKR
notes: Parent antibody
With B8, in assay [1], the Kd was 0.028 nM, the koff stood at 4.8e-05 s⁻¹ and the kon was determined as 1.7e+06 M⁻¹ s⁻¹. In addition, the “TNFα Neutralization Assay IC50 (L929 cells)” value in assay [2] amounted to 0.313 nM.
